The values below come from the DeepSol protein solubility set.

This series is described as follows: soluble on expression in E. coli; label from the status in PepcDB or PDB records.
For “MSLKNITIGMVGVGRIGRMHVANMLAVAETLKERDLNIEIVLADAMPGFAEQVGADMGVKAAASVDKLIEDGVDALFIATSTAGHVDVLRKGIAAKLPMFCEKPIASDVPESLNIIREIDAAGATVQVGHQRRFDLGYQEAKRRLDAGDLGWLHSLKAVSSDAFPPPVSYCATSGGLFRDVSLHDFDIIRWLTGQDIVEVYAKGSNNGDPEIGAVGDIDTGAALLTLADGTLATAIATRYNGAGHDVRLDVMGSKDSTIVGLDEKSAFASAEEGIDFPTGESHPTFAERFADAYKNECIAFVELILGERENPCTPADAVAAAIVADAAQLSLVTGEPVKIPTVREILEGSAQPVEVRALVPSEGHHHHHH”, the “soluble on expression in E. coli” value is recorded as “soluble”. With “MSLKNLILAIESSCDDSSIAIIDKNTLECKFHKKISQELDHSIYGGVVPELAARLHSEALPKMLKQCKEHFKNLCAIAVTNEPGLSVSLLSGISMAKTLASALNLPLIPINHLKGHIYSLFLEEKISLDMGILLVSGGHTMVLYLKDDASLELLASTNDDSFGESFDKVAKMMNLGYPGGVIIENLAKNAKLKNISFNTPLKHSKELAFSFSGLKNAVRLEILKHENLNEDTKAEIAYAFENTACDHIMDKLEKIFNLYKFKNFGVVGGASANLNLRSRLQNLCQKYNANLKLAPLKFCSDNALMIARAAVDAYEKKEFVSVEEDILSPKNKNFSRIEGHHHHHH”, the “soluble on expression in E. coli” value is listed as “soluble”.

For the sequence “MSLKNNRHFLKFYCIRDLSWLSSVRASFIYSSFESIASSPFSSYIELRKKPVKFLLILFIALTLCDCGRSKETQFYLLTPISPQKNSRNSYNHLQIGVDEVSIPDYMKKPQLMIHQTPHHLTLEEFNQWAGALDKNITLVLTTNLSTLMPGVVVQTSPWNNKFHPDYHLQVMISQFEIDIHGNSTLRAEYFIYRKEELIYKGNAYYHIKVPLISIETLVQSMNTNLTHLTEEIARFFIKNTTKEGHHHHHH”, the “soluble on expression in E. coli” value is reported as “not soluble”. For “MSLKNQIEKLLENFVPEGQQEKTDFKVFQDFAADEKNLNRSSIAHFTASVFVLNESHDKILGIYHKIYQSWGWVGGHADGNADLLAVAVKEVQEETGLRSFKKLSEMPISIEALPVFGHHHRKYGYVSAHIHLNVTFLFEAKESDSLQKNTDETGGLAWIPLEKFSEKSSEKEMRVIYDKIITRIINKEGHHHHHH” the value was “soluble”; for “MSLKNVLTGLFLLILATACSEEEPQTITPVPFNQVTLTDGFWKNRMQTEINVTVPFSVEQSAPAVERFRRCAAFLAGDSTALPETHRFISSDLYKVMEGVSYSLMIQPNKELEEFMDRVADLITASQKDDGYLYISHICGNPDPREMGEKPYSWVVHSHELYNVGHLYEAAVAYYQATGKDKLLNVAIKSAKHVNKVFFEGGDPNYNGGKPINQAPGHEEIELALCKLYRVTNDPLYLDMAKKFLEIRGVTYRPEGEGVMAPTYAQQHAPVKEQTEAVGHAVRAAYLYTAMAQVDALTGLNDYTKALNSIWTNLVTTRMHITGGLGAVEGMEGFGAPYELPNLTAYNETCAAVANVFFNYGMYLDSGDAKFLDIAELSLFNNSLAGINLHGDRFFYVNPLEADGVRRFNHGNGGRAKWFGCACCPPNISRLILQVPGYMYAYSKDRVYLTLYGGSQTTIPLEGTRVKLEQTSAYPFDGKVRLTVQPEKGSKFSVCMRIPTWARSDEFVPGGLYPYKQPKQAEVELSVNGQKTDFKMEKGFAVIKRDWKPGDVVELNIPMPVRFVDCIPEVSENIGKTAVTRGPLVYCAEEVDNAGPVQRLYLGDTNEAQAKVANISSGVLQGLERITLPGMEKKVGGITSREITMIPYYAWCNRGDNRTMLVWLNEEASTASIGQQTMAYLRNVKGVNASSVAGGKNISVRALCDGKVSESSADKLTEQWVSEGSGKQWVQVDFREPFLLNSLSVYWLDDQDKITVPSGWSVEYKSDAGWTPLELYVTDSYQMGTDRFNVVHPSGSLEVESVRILIEPQKGKSIGVSEIRFEEGHHHHHH”, “soluble”. Turning to “MSLKPDNLPVTFGKNDVEIIARETLYRGFSSLDLYRFRHRLFNGQMSHEVRREIFERGHAAVLLPFDPVRDEVVLIEQIRIAAYDTSETPWLLEMVAGMIEEGESVEDVARREAIEEAGLIVKRTKPVLSFLASPGGTSERSSIMVGEVDATTASGIHGLADENEDIRVHVVSREQAYQWVEEGKIDNAASVIALQWLQLHHQALKNEWAEGGSHHHHHH”, the “soluble on expression in E. coli” value is “soluble”. For “MSLKPRVVDFDETWNKLLTTIKAVVMLEYVERATWNDRFSDIYALCVAYPEPLGERLYAETKIFLESHVRHLYRYWEEYSKGADYMDCLYRYLNTQYIKKNKLTEADIQYGYGGVDMNEPLMEIGELALDMWRKLMVEPLQNILIRMLLREIKNDRGGEDPNQKVIHGVINSFVHVEQYKKKFPLKFYQGIFVSPFLTETGEYYKQEASNLLQESNCSQYMEKVLGRLKDEEIRCRKYLHPSSYTKVIHECQQRMVADHLQFLHSECHSIIQQERKNDMANMYVLLRAVSSGLPHMIEELQKHIHDEGLRATSNLTQEHMPTLFVESVLEVHGKFVQLINTVLNGDQHFMSALDKALTSVVNYREPKSVCKAPELLAKYCDNLLKKSAKGMTENEVEDKLTSFITVFKYIDDKDVFQKFYARMLAKRLIHGLSMSMDSEEAMINKLKQACGYEFTSKLHRMYTDMSVSADLNNKFNNFIRNQDTVIDLGISFQIYVLQAGAWPLTQAPSSTFAIPQELEKSVQMFELFYSQHFSGRKLTWLHYLCTGEVKMNYLGKPYVAMVTTYQMAVLLAFNNSETVSYKELQDSTQMNEKELTKTIKSLLDVKMINHDSEKEDIDAESSFSLNMSFSSKRTKFKITTSMQKDTPQELEQTRSAVDEDRKMYLQAAIVRIMKARKVLRHNALIQEVISQSRARFNPSISMIKKCIEVLIDKQYIERSQASADEYSYVA” the value was “soluble”; for “MSLKPVIGITGNRLVKGVDVFYGHRVTYTQQRYVDAIQKVGGFPIALPIDDPSTAVQAISLVDGLLLTGGQDITPQLYLEEPSQEIGAYFPPRDSYEIALVRAALDAGKPIFAICRGMQLVNVALGGTLYQDISQVETKALQHLQRVDEQLGSHTIDIEPTSELAKHHPNKKLVNSLHHQFIKKLAPSFKVTARTADGMIEAVEGDNLPSWYLGVQWHPELMFQTDPESEQLFQALVDESKKTMVKEGHHHHHH”, “soluble”.

Regarding “MSLKPVKPPRINGRVPVLSAQEAVNYIPDEATLCVLGAGGGILEATTLITALADKYKQTQTPRNLSIISPTGLGDRADRGISPLAQEGLVKWALCGHWGQSPRISELAEQNKIIAYNYPQGVLTQTLRAAAAHQPGIISDIGIGTFVDPRQQGGKLNEVTKEDLIKLVEFDNKEYLYYKAIAPDIAFIRATTCDSEGYATFEDEVMYLDALVIAQAVHNNGGIVMMQVQKMVKKATLHPKSVRIPGYLVDIVVVDPDQTQLYGGAPVNRFISGDFTLDDSTKLSLPLNQRKLVARRALFEMRKGAVGNVGVGIADGIGLVAREEGCADDFILTVETGPIGGITSQGIAFGANVNTRAILDMTSQFDFYHGGGLDVCYLSFAEVDQHGNVGVHKFNGKIMGTGGFIDISATSKKIIFCGTLTAGSLKTEITDGKLNIVQEGRVKKFIRELPEITFSGKIALERGLDVRYITERAVFTLKEDGLHLIEIAPGVDLQKDILDKMDFTPVISPELKLMDERLFIDAAMGFVLPEAAHEGGSHHHHHH”, the “soluble on expression in E. coli” value is listed as “soluble”. For the sequence “MSLKQIVGHKLLNDVIRPLKKGDGRSAWNVLIVDTLAMRMLSSCCKMHNIMEEGITIVEDLNKRREPLPTLEAIYLIAPTAESIDKLIQDYCARNLYKCAHVFFTEACSDQLFSTLSKSAAARFIKTLKEINIAFTPYESQVFNLDSPDTFFLYYNAQKQGGLTSNLERIAEQIATVCATLGEYPSLRYRADFERNVELGHLVEQKLDAYKADDPSMGEGADKARSQLIIIDRGYDAITPLLHELTLQAMCYDLLGIENDVYKYETGGSDENLEKEVLLDENDDLWVEMRHKHIAVVSQEVTKNLKKFSESKGNKGTMDSKSIKDLSMLIKRMPQHKKELNKFSTHISLAEECMKQYQQGVDKLCKVEQDLSTGIDAEGERVRDAMKLMVPLLIDPAVRCEDRLRLILLYILSKNGITDENLNKLLQHANISMADKETITNAAYLGLNIVTDTGRKKTWTPTKKERPHEQVYQSSRWVPVIKDIIEDAIDERLDTKHFPFLAGRQVNQGYRAPASARYGQWHKERGQQSNYRSGPRLIIYIIGGVTFSEMRACYEVTAARKPWEVVIGSDRIITPDKFLTNLRDLNKPRDI”, the “soluble on expression in E. coli” value is “not soluble”. For “MSLKQVPDVNKIKFDPETKRIVRKDVPLMMNSFDKKAVEEAIRISERHGWETCVATMGPPQAVEVINEALRMGIERGYLITDPSLANSDTLITSRVLAAFALRYGPDLVLMGKYSLDGETSQVPAEVSALMGWPYVPSVSKIMISDHLELEQELENGIYTCSAPLPCVLSLSEKINRARAIKPDTPQMYDRIVQIDTKWLGLDLDGGRDSPTAVIGTEQVNSNRSPVFIDPGADMYRQIMEIIRVSRKNDRMKTIDLNYAEFRGEAWAIAIDSENASLEIASKVADIASENSFYVRVIGNVEFSDPRSVPAHHVDIISGTDAVGLSYYIVDEIKKHSPEFLIFPSTVTGRQISSLVAARFGLGLTADCVDLSYGDRGLLQYKPAFGGGVIAEIISRKKPAMATARPGMFRKVKVNIEPSISHMSLDPAGRIRYGQFIPVPQEFKPLEGSRLILGIGRGLKRKEDLPKIMELASMLGASVGGSRPIVDMNYIPRQQQIGLTGSAVSPDVYIALGISGQDNHIVGLRYARKIIAVNTDRNAPIFRYSDYGIIMDLMQFVEGFLHFLNAEGHHHHHH” the value was “not soluble”. As to “MSLKQYLITGGTGMVGSQLVNEIKKSDSHITILTRHDQISNDKKISYVNWAKSGWEHKVPQNIDVVINLAGATLNKRWTPEYKQTLMLSRIQSTQALYELFKSRNKAPKVLFNASATGYYPPDLFMSYTEVYKTLPFDFLSDIVYQWERFAQQFEQLGTRVVIGRFGMILSNEGGALQTMKLPYKYYIGGKLGSGQQWYSWIHINDLIQAILFLINNESASGPFNLTAPIPERQNLFGYTLARAMHKPHETWAPSLAMRLILGQMSTVVLDTQKVLPNKIQALGFQFKYSNLKMALEDLIKEGHHHHHH”, the “soluble on expression in E. coli” value is given as “soluble”. As to “MSLKRFIDDHRDVHGVEPICKVLPIAPSTYYAHAARRSDPELRSARAKTDEALMPEIRRVWDENFQVYGVRQLWRQMRREQFAVARCTVQRLMKRQGLRGVIRGKAVRTTVSDAKAPCPLDHVNRQFTSDRPNALWVSDFTDVSTWQGWICVAFVIDVFARRIVGWKASPSMRTELVLDALEQALHARKPVGSERMIHHSDRGVQYVSIRYTERLAEAGLEPSVGSVSDSYDNALAETINGLCKAEVIHRKSSWRTREEVEWATLTWVDWFNNRRVLEPIGNIPPAEAEANYYLISPDLQLQHLRAYREGHHHHHH”, the “soluble on expression in E. coli” value is “soluble”. To “MSLKRIKTVLAATDLSAPARHAAMRAALLAGQTDAKLGLLHVVDLQLMEHLRSFAGRSGEAAERRLIGEAMKELERLATDMTHRWGSAVEVRLVVGAVLKEIVAHADTLDADLLVMGARGAGFVRELLLGSTTERVLRLITRPVLMVKQIPHGPYQRVLVAVDFSERSVAALRLARWVAPEAHFVVLNAFQPPLENKLRQGGADEFEIMELRDAARRDADARMDEVMAHAGFPAERLTRLVLPGPALDCVLEQEQEQDCDLIVVGKHGYGWIEEMLLGSLTKHLLALSSCDVLVASQSREGHHHHHH” belongs “soluble”; to “MSLKRLTSRRQKGGGCPDLTIRAHHLLCMRGFQGYGYSEEFTENLARIIHEIKGNPSAFLMIVDFPDDICRACPFMDGLRCLRDEERIRSMDRRVLELLKLESGCMVTFHDIEDALLALITSGKIMEICGECSWMDLCLIHREGHHHHHH”, “not soluble”.
